The values below come from patent publication US20240400675A1 (published 2024).

Residue numbers refer to the chain shown, from its start.

Assay [1] deals with T1, human CLDN9 (UniProt O95484 1-217).
T1 chain: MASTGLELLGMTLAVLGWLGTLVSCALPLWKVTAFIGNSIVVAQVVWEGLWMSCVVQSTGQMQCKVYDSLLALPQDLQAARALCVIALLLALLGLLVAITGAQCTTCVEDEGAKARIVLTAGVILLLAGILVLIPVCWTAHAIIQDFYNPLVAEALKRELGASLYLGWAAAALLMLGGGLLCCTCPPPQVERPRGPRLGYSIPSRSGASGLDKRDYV
Briefly: HEK293E cell binding; avid.

Assay [2] addresses T2, human CLDN6 (UniProt P56747 1-220).
T2 chain: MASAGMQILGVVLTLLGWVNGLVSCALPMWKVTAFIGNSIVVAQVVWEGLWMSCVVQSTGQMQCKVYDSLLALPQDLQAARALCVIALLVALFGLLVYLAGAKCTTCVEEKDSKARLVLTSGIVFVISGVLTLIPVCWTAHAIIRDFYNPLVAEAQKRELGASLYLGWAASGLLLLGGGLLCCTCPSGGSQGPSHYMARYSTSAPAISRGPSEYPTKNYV
Briefly: HEK293E cell binding; avid.

In assay [3] the target is T1, human CLDN9. Kind of assay: HEK293E cell binding; avid.
For assay [4], the target named is T2, human CLDN6. Kind of assay: HEK293E cell binding; avid.
The target in assay [5] is T2, human CLDN6. Briefly: flow cytometry, HEK293E cells.
For assay [6], the target named is T3, cyno CLDN6.
T3 chain: T2 chain with Q191R
Kind of assay: flow cytometry, HEK293E cells. On the technique in general: In flow cytometry, cells or beads pass a laser one at a time.

Assay [7] has as its target T4, mouse CLDN6 (mouse, UniProt Q9Z262 1-219).
T4 chain: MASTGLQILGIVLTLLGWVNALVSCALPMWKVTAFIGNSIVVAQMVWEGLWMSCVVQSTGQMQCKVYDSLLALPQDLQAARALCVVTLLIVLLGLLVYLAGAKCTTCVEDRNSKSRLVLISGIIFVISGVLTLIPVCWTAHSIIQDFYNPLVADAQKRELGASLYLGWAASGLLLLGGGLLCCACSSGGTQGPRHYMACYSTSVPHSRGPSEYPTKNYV
Briefly: flow cytometry, HEK293E cells.

For assay [8], the target named is T1, human CLDN9. Kind of assay: flow cytometry, HEK293E cells.
The target in assay [9] is T5, CLDN6 I143V isotype (UniProt P56747 1-220).
T5 chain: T2 chain with I143V
Briefly: flow cytometry, HEK293E cells.

The target in assay [10] is T2, human CLDN6. Briefly: flow cytometry, HEK293E cells.

B1: XENP34218, humanized C6-30 H1L1 bivalent mAb (antibody, V domains shown)
VH: QVQLVQSGAEVKKPGASVKVSCKTSGYTFTEYTMHWVRQAPGQSLEWMGGIDPNNGNTHYNQKFQGRVTITVDKSASTAYMELSSLRSEDTAVYYCARIYYFGRLYFDFWGAGTLVTVSS
VL: DIQMTQSPSSLSASVGDRVTITCQASEDIYNRLAWYQQKPGKVPKLLISGATSLETGVPSRFSGSGSGKDYTFTISSLQPEDIATYYCQQYWSSPLTFGGGTKVEIKR
A word on the EC50: it is the concentration at which the effect is half-maximal. Lower therefore signals greater potency. As to B1, the EC50 was 11.6 µg/mL in assay [1], 0.344 µg/mL in assay [2], 54.2 µg/mL in [3] and 1.24 µg/mL in [4].

B2: XENP35865 H2_L1.60 (antibody, V domains shown)
VH: EVQLVQSGAEVKKPGESLRISCKTSGYTFTEYTMHWVRQMPGKSLEWMGGIDPNNGNTHYNQKFQGHVTISVDKSISTAYLQWSSLKASDTAMYYCARIYYFGRLYFDFWGAGTLVTVSS
VL: B1 VL with Y91L
With B2, the figures for the EC50 in [1] and in assay [2] were 124 µg/mL and 0.686 µg/mL, respectively.

B3: XENP36040 H2.90_L1 (antibody, V domains shown)
VH: B2 VH with G56L
VL: B1 VL
On to B3, for which the concentration giving a half-maximal response (EC50) turned out to be 66.1 µg/mL in assay [1] and 0.706 µg/mL in assay [2].

B4: XENP35090 H1.6_L1 (antibody, V domains shown)
VH: B1 VH with N55S
VL: B1 VL
As to B4, the EC50 in [1] was determined as 7.06 µg/mL; in [2], 0.903 µg/mL; in assay [3] it was 44.6 µg/mL; in [4] it was 1.56 µg/mL.

B5: XENP35981 H2_L1.189 (antibody, V domains shown)
VH: B2 VH
VL: B1 VL with N31L
For the molecule B5, the EC50 stood at 31.7 µg/mL in [1] and 0.404 µg/mL in [2].

B6: XENP34220, humanized C6-30 H2L1 bivalent mAb (antibody, V domains shown)
VH: B2 VH
VL: B1 VL
B6: the EC50 in assay [1] amounted to 11.1 µg/mL; in assay [2] it was 0.391 µg/mL; in assay [3], 43.8 µg/mL; in [4], 1.63 µg/mL.

B7: XENP35886 H1.22_L1 (antibody, V domains shown)
VH: B1 VH with Y100L
VL: B1 VL
As to B7, the EC50 was found to be 24.5 µg/mL in assay [1] and 0.941 µg/mL in [2].

B8: XENP35891 H2.12_L1 (antibody, V domains shown)
VH: B2 VH with T28D
VL: B1 VL
As to B8, the EC50 in assay [1] came out at 44.1 µg/mL; in assay [2] it was 0.474 µg/mL.

B9: XENP35888 H1.24_L1 (antibody, V domains shown)
VH: B1 VH with F102L
VL: B1 VL
On to B9, for which the EC50 in assay [1] was found to be 43.8 µg/mL; in assay [2], 0.657 µg/mL.

B10: XENP34233 (C6-30_H1L1 x CD3 bsAb in the 2+1 Fab2-scFv-Fc format) (bispecific antibody)
heavy 1: QVQLVQSGAEVKKPGASVKVSCKTSGYTFTEYTMHWVRQAPGQSLEWMGGIDPNNGNTHYNQKFQGRVTITVDKSASTAYMELSSLRSEDTAVYYCARIYYFGRLYFDFWGAGTLVTVSSASTKGPSVFPLAPSSKSTSGGTAALGCLVKDYFPEPVTVSWNSGALTSGVHTFPAVLQSSGLYSLSSVVTVPSSSLGTQTYICNVNHKPSDTKVDKKVEPKSCDKTHTCPPCPAPPVAGPSVFLFPPKPKDTLMISRTPEVTCVVVDVKHEDPEVKFNWYVDGVEVHNAKTKPREEEYNSTYRVVSVLTVLHQDWLNGKEYKCKVSNKALPAPIEKTISKAKGQPREPQVYTLPPSREEMTKNQVSLTCDVSGFYPSDIAVEWESDGQPENNYKTTPPVLDSDGSFFLYSKLTVDKSRWEQGDVFSCSVMHEALHNHYTQKSLSLSPGK
heavy 2: QVQLVQSGAEVKKPGASVKVSCKTSGYTFTEYTMHWVRQAPGQSLEWMGGIDPNNGNTHYNQKFQGRVTITVDKSASTAYMELSSLRSEDTAVYYCARIYYFGRLYFDFWGAGTLVTVSSASTKGPSVFPLAPSSKSTSGGTAALGCLVKDYFPEPVTVSWNSGALTSGVHTFPAVLQSSGLYSLSSVVTVPSSSLGTQTYICNVNHKPSNTKVDKKVEPKSCGGGGSGGGGSQAVVTQEPSLTVSPGGTVTLTCGSSTGAVTTSNYANWVQQKPGKSPRGLIGGTNKRAPGVPARFSGSLLGGKAALTISGAQPEDEADYYCALWYSNHWVFGGGTKLTVLGKPGSGKPGSGKPGSGKPGSEVQLVESGGGLVQPGGSLRLSCAASGFTFSTYAMNWVRQAPGKGLEWVGRIRSKYNNYATYYADSVKGRFTISRDDSKNTLYLQMNSLRAEDTAVYYCVRHGNFGDSYVSWFAYWGQGTLVTVSSGGGGSGGGGSKTHTCPPCPAPPVAGPSVFLFPPKPKDTLMISRTPEVTCVVVDVKHEDPEVKFNWYVDGVEVHNAKTKPREEQYNSTYRVVSVLTVLHQDWLNGKEYKCKVSNKALPAPIEKTISKAKGQPREPQVYTLPPSREQMTKNQVKLTCLVKGFYPSDIAVEWESNGQPENNYKTTPPVLDSDGSFFLYSKLTVDKSRWQQGNVFSCSVMHEALHNHYTQKSLSLSPGK
light: not shown
Regarding B10, the EC50 in assay [5] turned out to be 0.224 µg/mL; in assay [6], 0.316 µg/mL; in assay [7], 0.664 µg/mL; in assay [8] it was 6.73 µg/mL; in assay [9], 0.329 µg/mL; in [10] it was 0.359 µg/mL.

B11: XENP34229 (C6-30_H1L1 x CD3 bsAb in the 1+1 Fab-scFv-Fc format) (bispecific antibody)
heavy: B10 heavy 1
scFv-Fc: QAVVTQEPSLTVSPGGTVTLTCGSSTGAVTTSNYANWVQQKPGKSPRGLIGGTNKRAPGVPARFSGSLLGGKAALTISGAQPEDEADYYCALWYSNHWVFGGGTKLTVLGKPGSGKPGSGKPGSGKPGSEVQLVESGGGLVQPGGSLRLSCAASGFTFSTYAMNWVRQAPGKGLEWVGRIRSKYNNYATYYADSVKGRFTISRDDSKNTLYLQMNSLRAEDTAVYYCVRHGNFGDSYVSWFAYWGQGTLVTVSSEPKSSDKTHTCPPCPAPPVAGPSVFLFPPKPKDTLMISRTPEVTCVVVDVKHEDPEVKFNWYVDGVEVHNAKTKPREEQYNSTYRVVSVLTVLHQDWLNGKEYKCKVSNKALPAPIEKTISKAKGQPREPQVYTLPPSREQMTKNQVKLTCLVKGFYPSDIAVEWESNGQPENNYKTTPPVLDSDGSFFLYSKLTVDKSRWQQGNVFSCSVMHEALHNHYTQKSLSLSPGK
light: not shown
Consider B11, for which the EC50 in assay [5] is 3.48 µg/mL; in [6] it was 5.65 µg/mL; in assay [7], 12 µg/mL; in [8] it was 78.8 µg/mL; in assay [9], 5.58 µg/mL; in [10], 6.49 µg/mL.
